Data: patent publication US20120231065A1

Target: GCSF receptor (rat, endogenous, on neurons / in cortex tissue) (rat) (UniProt D4A3R0)
Experiment: cell-based or functional assay

Chain of UniProt D4A3R0 (D4A3R0 entry or part of it limits assumed, form in doubt): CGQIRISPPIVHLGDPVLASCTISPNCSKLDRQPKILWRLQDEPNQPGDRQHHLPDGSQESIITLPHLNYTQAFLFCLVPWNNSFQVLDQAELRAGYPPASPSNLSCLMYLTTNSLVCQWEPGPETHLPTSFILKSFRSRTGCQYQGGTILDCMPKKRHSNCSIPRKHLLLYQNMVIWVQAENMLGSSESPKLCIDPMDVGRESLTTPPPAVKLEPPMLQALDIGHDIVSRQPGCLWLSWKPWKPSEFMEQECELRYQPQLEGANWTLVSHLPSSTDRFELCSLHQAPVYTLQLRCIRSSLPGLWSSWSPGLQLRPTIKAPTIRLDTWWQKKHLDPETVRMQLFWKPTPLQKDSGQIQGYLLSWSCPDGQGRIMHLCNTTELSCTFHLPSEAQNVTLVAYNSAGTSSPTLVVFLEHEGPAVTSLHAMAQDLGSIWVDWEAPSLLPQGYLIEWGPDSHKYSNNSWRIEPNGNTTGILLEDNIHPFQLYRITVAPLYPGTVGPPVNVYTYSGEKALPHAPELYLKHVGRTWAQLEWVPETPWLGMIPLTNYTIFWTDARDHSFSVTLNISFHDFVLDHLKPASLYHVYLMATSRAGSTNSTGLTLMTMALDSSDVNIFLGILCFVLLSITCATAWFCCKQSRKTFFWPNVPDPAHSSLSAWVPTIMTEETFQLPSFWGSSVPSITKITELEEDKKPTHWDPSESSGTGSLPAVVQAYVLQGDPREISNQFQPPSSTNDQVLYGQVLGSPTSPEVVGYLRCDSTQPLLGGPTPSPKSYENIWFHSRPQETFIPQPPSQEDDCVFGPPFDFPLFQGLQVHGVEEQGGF

Q: With “recombinant human GCSF, Neupogen (Amgen) (from UniProt P09919 31-207) (ligand)” as the substance, how does the STAT3 nuclear translocation in neurons of the penumbra, percent of STAT3 positive neurons from all neurons (GCSF treated rats versus untreated controls) (percent of STAT3 positive neurons) read?
A: 34.4
